Measured values from patent US20240043567A1 (published 2024).

Molecular target: QP3732 (Her2M2-Fc)
Test: ELISA

B1: pertuzumab (antibody, V domains shown)
VH: EVQLVESGGGLVQPGGSLRLSCAASGFTFTDYTMDWVRQAPGKGLEWVADVNPNSGGSIYNQRFKGRFTLSVDRSKNTLYLQMNSLRAEDTAVYYCARNLGPSFYFDYWGQGTLVTVSS
VL: DIQMTQSPSSLSASVGDRVTITCKASQDVSIGVAWYQQKPGKAPKLLIYSASYRYTGVPSRFSGSGSGTDFTLTISSLQPEDFATYYCQQYYIYPYTFGQGTKVEIK
Which EC50 does the source give for B1 here?
Its EC50 is 0.0307 µg/mL.
